Values quoted from earlier work in article PMC8393326, “A Thermodynamic Analysis of the Binding Specificity between Four Human PDZ Domains and Eight Host, Viral and Designed Ligands” (Biomolecules, 2021).

Experiments:
[1] = molecular target: phosphorylated ERBB2 peptide (Homo sapiens)
[2] = molecular target: ERBB2 peptide (Homo sapiens)

Erbin PDZ, sequence (Q96RT1 1318-1412): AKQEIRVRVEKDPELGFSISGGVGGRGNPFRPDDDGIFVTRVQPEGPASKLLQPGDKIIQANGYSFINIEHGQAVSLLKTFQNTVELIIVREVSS

Substance: Erbin PDZ (from UniProt Q96RT1)
- Kd [1]: 128 µM
- Kd [2]: 50 µM
